Assay results as given in WO2019076277A1 (dated 2019).
Values belong to the binder of their own block, whether it stands above or below them.

What was measured:
human LAG-3 protein = target: T1, human LAG-3 protein (human, UniProt P18627 23-450, limits assumed); assay: binding ELISA on human LAG-3 protein (Test Example 1)
T1 construct: also called human LAG-3 antigen; LAG-3 antigen
T1 sequence (looked up): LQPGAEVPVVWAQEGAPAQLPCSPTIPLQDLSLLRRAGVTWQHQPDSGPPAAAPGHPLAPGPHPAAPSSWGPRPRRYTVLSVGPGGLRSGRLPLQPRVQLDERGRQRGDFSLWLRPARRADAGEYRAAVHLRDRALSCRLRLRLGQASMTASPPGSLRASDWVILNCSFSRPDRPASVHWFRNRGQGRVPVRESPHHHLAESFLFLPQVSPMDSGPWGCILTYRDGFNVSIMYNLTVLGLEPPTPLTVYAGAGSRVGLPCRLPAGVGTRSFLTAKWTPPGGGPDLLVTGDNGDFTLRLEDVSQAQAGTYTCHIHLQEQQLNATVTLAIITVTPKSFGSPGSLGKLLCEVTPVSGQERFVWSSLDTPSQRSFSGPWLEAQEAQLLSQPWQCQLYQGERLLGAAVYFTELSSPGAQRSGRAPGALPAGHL

[1] = target: T2, human LAG-3 full-length protein overexpressed on CHO-S cells (human, UniProt P18627 23-525); assay: cell ELISA on CHO-S cells overexpressing human LAG-3 (Test Example 2)
T2 construct: whole, on cells; also called full-length LAG-3; CHO-S cells overexpressing the human LAG-3 full-length protein
T2 sequence (looked up): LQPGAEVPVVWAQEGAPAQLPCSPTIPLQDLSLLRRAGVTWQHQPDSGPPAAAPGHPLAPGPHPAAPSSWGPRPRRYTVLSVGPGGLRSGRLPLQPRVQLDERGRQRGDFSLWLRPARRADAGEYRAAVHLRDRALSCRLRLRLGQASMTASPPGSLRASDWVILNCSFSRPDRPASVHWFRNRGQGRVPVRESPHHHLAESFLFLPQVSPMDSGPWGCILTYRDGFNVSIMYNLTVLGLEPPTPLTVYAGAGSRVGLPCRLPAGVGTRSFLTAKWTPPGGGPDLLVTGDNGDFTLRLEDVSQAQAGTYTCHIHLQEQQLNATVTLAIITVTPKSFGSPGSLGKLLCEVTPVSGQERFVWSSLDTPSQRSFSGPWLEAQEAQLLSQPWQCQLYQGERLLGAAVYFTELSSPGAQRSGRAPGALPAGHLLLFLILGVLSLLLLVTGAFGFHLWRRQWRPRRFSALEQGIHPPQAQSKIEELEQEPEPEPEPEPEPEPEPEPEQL

- binding result (human LAG-3 protein): binds
- binding result [1]: binds
B1: mAb229 (antibody, V domains shown)
VH: QIQLVQSGPELKKPGETVKISCKASGYTFTTSGMSWVKQAPGKGLKWMGWINTYSGVPTYADDFKGRFAFSLETSASTAYLQINNLKNEDTATYFCARDNYDARDVYYYAMDYWGQGTSVTVSS
VL: DIQMTQSPASLSVSVGETVTITCRASENIYSNLAWYQQKQGKSPQLLVYAATNLADGVPSRFSGSGSGTQYSLKINSLQSEDFGSYYCQHFWITPWTFGGGTKLEIK
notes: also called LAG-3 antibody mAb229; hybridoma clone mAb229

- binding result (human LAG-3 protein): binds
- binding result [1]: binds
B2: mAb303 (antibody, V domains shown)
VH: EVQLQQSGPVLVKPGASVKMSCKASGYTLTDYYMNWVKQSHGKSLEWIGVINPYNGDTAYNQKFKGKATLTVDKSSNTAYMEINSLTSEDSAVYYCTRDDGYYDYYFDVWGTGTTVTVSS
VL: DIQMTQSPSSLSASLGERVILTCRASQDIGSRLNWLQQGPDGTFKRLIYATSTLDSGVPKRFSGSRSGSDFSLTISSLESEDFVDYYCLQLASSPPTFGGGTKLEIK
notes: also called LAG-3 antibody mAb303; hybridoma clone mAb303
